Source: patent US20190322748A1 (Hoffmann-La Roche, published 2019)
Like-named read-outs stand apart in the source and are kept apart here.

Key:
monomeric human Tim3-ECD = molecular target: T1, monomeric human Tim3-ECD (human, UniProt Q8TDQ0 22-202); assay: SPR Biacore T200, Ab captured on anti-human Fab IgG, hu Tim3-ECD in solution, 25 C
T1 construct: SPR analyte; also called huTim3; hu Tim3-ECD

[1] = molecular target: T2, Tim3-CLIP (on transiently transfected HEK293 cells) (human, CLIP-tag labelled with Clip-Red); assay: cell-based TR-FRET (Tag-lite) on HEK293 cells co-transfected with PD1-SNAP (Lumi4-Tb) and Tim3-CLIP (Clip-Red), 1 h at 4 C; signal needs both receptors bound at once by one antibody; mean +/- SD, n=3
T2 construct: The plasmid encodes residues 1-202 including the signal peptide; also called CLIP-tagged TIM3

[2] = molecular target: T3, full-length human Tim3 on cells (CHO-K1 stably transfected with plasmid 15312_hTIM3-fl_pUC_Neo) (human, UniProt Q8TDQ0 22-301); assay: cell-based or functional assay
[3] = molecular target: T3, full-length human Tim3 on cells (CHO-K1 …); assay: cell-based or functional assay; remark: listed apart in the source
[4] = molecular target: T4, biotinylated TIM3-ECD-AviHis (human, UniProt Q8TDQ0 22-202, biotinylated, site not stated); assay: ELISA on coated biotinylated TIM3-ECD-AviHis
T4 construct: also called huTIM3; Hu TIM3

[5] = molecular target: T5, biotinylated PD1-ECD-AviHis (human, UniProt Q15116 25-170, biotinylated, site not stated); assay: ELISA on coated biotinylated PD1-ECD-AviHis
T5 construct: also called huPD1; hu PD1

[6] = molecular target: T6, PD1-SNAP (on transiently transfected HEK293 cells) (human, SNAP-tag labelled with SNAP-Lumi4-Tb); assay: cell-based TR-FRET on SNAP-tagged PD1 / CLIP-tagged TIM3 HEK293 cells, 1 h at 4 C; half-maximal FRET, i.e. simultaneous binding of both receptors, not of one arm alone
T6 construct: also called SNAP-tagged PD1

[7] = molecular target: T2, Tim3-CLIP (on transiently transfected …); assay: as above
human PD1-ECD = molecular target: T7, human PD1-ECD (human, UniProt Q15116 25-170); assay: SPR Biacore T200, Ab captured on anti-human Fc IgG, hu PD1-ECD in solution, 25 C
T7 construct: SPR analyte; also called hu PD1-ECD

[8] = molecular target: T8, full-length human PD1 on cells (CHO-K1 stably transfected with plasmid 15311_hPD1-fl_pUC_Neo) (human, UniProt Q15116 25-288); assay: cell-based or functional assay
[9] = molecular target: T6, PD1-SNAP (on transiently transfected …); assay: cell-based TR-FRET (Tag-lite) on HEK293 cells co-transfected with PD1-SNAP (Lumi4-Tb) and Tim3-CLIP (Clip-Red), 1 h at 4 C; signal needs both receptors bound at once by one antibody; mean +/- SD, n=3
[10] = molecular target: T2, Tim3-CLIP (on transiently transfected …); assay: as above; remark: listed apart in the source
[11] = molecular target: T8, full-length human PD1 on cells (CHO-K1 …); assay: cell-based or functional assay; remark: listed apart in the source
[12] = molecular target: T8, full-length human PD1 on cells (CHO-K1 …); assay: cell-based or functional assay; remark: listed apart in the source

Binder	Kd (monomeric human Tim3-ECD) [nM]	EC50 [4] [nM]	Kd (human PD1-ECD) [nM]	EC50 [5] [nM]	binding result [9]	binding result [10]	also measured
1+1 PD1TIM3_0477 (based on humanized PD1-0103_0312 / Tim3-0434) (bispecific antibody, human IgG1, kappa, L234A L235A, 1+1 CrossMAb Vh-VL: HC1/LC1 form the crossed PD1 arm, HC2/LC2 the TIM3 arm; knobs into holes; also called PD1TIM3_477) heavy 1: not shown heavy 2: QITLKESGPTLVKPTQTLTLTCTFSGFSLSTSGMSVGWIRQPPGKGLEWLAHIWLNDDVFFNPALKSRLTITKDTSKNQVVLTMTNMDPVDTATYYCVRANGYLYALDYWGQGTLVTVSSASTKGPSVFPLAPSSKSTSGGTAALGCLVEDYFPEPVTVSWNSGALTSGVHTFPAVLQSSGLYSLSSVVTVPSSSLGTQTYICNVNHKPSNTKVDEKVEPKSCDKTHTCPPCPAPEAAGGPSVFLFPPKPKDTLMISRTPEVTCVVVDVSHEDPEVKFNWYVDGVEVHNAKTKPREEQYNSTYRVVSVLTVLHQDWLNGKEYKCKVSNKALGAPIEKTISKAKGQPREPQVCTLPPSRDELTKNQVSLSCAVKGFYPSDIAVEWESNGQPENNYKTTPPVLDSDGSFFLVSKLTVDKSRWQQGNVFSCSVMHEALHNHYTQKSLSLSPGK light 1: EVQLLESGGGLVQPGGSLRLSCAASGFSFSSYTMSWVRQAPGKGLEWVATISGGGRDIYYPDSVKGRFTISRDNSKNTLYLQMNSLRAEDTAVYYCVLLTGRVYFALDSWGQGTLVTVSSASVAAPSVFIFPPSDEQLKSGTASVVCLLNNFYPREAKVQWKVDNALQSGNSQESVTEQDSKDSTYSLSSTLTLSKADYEKHKVYACEVTHQGLSSPVTKSFNRGEC light 2: DIQLTQSPSFLSASVGDRVTITCSASSSVSYTQWYQQKPGKAPKLWIYDAFKLAPGVPSRFSGSGSGTEFTLTISSLQPEDFATYFCHQWSSYPWTFGQGTKLEIKRTVAAPSVFIFPPSDRKLKSGTASVVCLLNNFYPREAKVQWKVDNALQSGNSQESVTEQDSKDSTYSLSSTLTLSKADYEKHKVYACEVTHQGLSSPVTKSFNRGEC	12	–	–	–	–	–	binding result [1]: binds
Chimeric TIM3-0016 variant (0018) (antibody, human IgG1, V domains shown, also called Chimeric TIM3-0018) VH: QVTLKESGPGILQPSQTLSLTCSFSGFSLSTSGMSVGWIRQPSGKGLEWLAHIWLNDDVFFNPALKRRLTISKDTSNNQVFLQIASVVTADTATYYCVRANGYLYALDYWGQGISVTVSS VL: QIVLTQSPAIMSASPGQKVTITCSASSSVNYTQWYQQKLGSSPKLWIYDAFKLAPGVPARFSGSGTGTSYSLTISSMEAEDAASYFCHQWSSYPWTFGGGTKLEIK	–	0.15	–	–	–	–	EC50 of IFN-g secretion/release in MLR, donors D1 + D5, with 0.1 µg/ml anti-PD1 mAb [2]: 4.2 nM; EC50 of IFN-g secretion/release in MLR, donors D2 + D3, with 0.1 µg/ml anti-PD1 mAb [2]: 3.1 nM; EC50 of IFN-gamma secretion in MLR, donors D2 + D6 [3]: > 274 nM; binding result [5]: no binding
1+1 PD1TIM3_0168 (based on chimeric PD1-0103 / Tim3-0018) (bispecific antibody, human IgG1, kappa, L234A L235A, 1+1 CrossMAb Vh-VL: HC1/LC1 form the crossed PD1 arm, HC2/LC2 the TIM3 arm; knobs into holes) heavy 1: not shown heavy 2: QVTLKESGPGILQPSQTLSLTCSFSGFSLSTSGMSVGWIRQPSGKGLEWLAHIWLNDDVFFNPALKRRLTISKDTSNNQVFLQIASVVTADTATYYCVRANGYLYALDYWGQGISVTVSSASTKGPSVFPLAPSSKSTSGGTAALGCLVEDYFPEPVTVSWNSGALTSGVHTFPAVLQSSGLYSLSSVVTVPSSSLGTQTYICNVNHKPSNTKVDEKVEPKSCDKTHTCPPCPAPEAAGGPSVFLFPPKPKDTLMISRTPEVTCVVVDVSHEDPEVKFNWYVDGVEVHNAKTKPREEQYNSTYRVVSVLTVLHQDWLNGKEYKCKVSNKALGAPIEKTISKAKGQPREPQVCTLPPSRDELTKNQVSLSCAVKGFYPSDIAVEWESNGQPENNYKTTPPVLDSDGSFFLVSKLTVDKSRWQQGNVFSCSVMHEALHNRFTQKSLSLSPGK light 1: EVILVESGGGLVKPGGSLKLSCAASGFSFSSYTMSWVRQTPEKRLDWVATISGGGRDIYYPDSVKGRFTISRDNAKNTLYLEMSSLMSEDTALYYCVLLTGRVYFALDSWGQGTSVTVSSASVAAPSVFIFPPSDEQLKSGTASVVCLLNNFYPREAKVQWKVDNALQSGNSQESVTEQDSKDSTYSLSSTLTLSKADYEKHKVYACEVTHQGLSSPVTKSFNRGEC light 2: QIVLTQSPAIMSASPGQKVTITCSASSSVNYTQWYQQKLGSSPKLWIYDAFKLAPGVPARFSGSGTGTSYSLTISSMEAEDAASYFCHQWSSYPWTFGGGTKLEIKRTVAAPSVFIFPPSDRKLKSGTASVVCLLNNFYPREAKVQWKVDNALQSGNSQESVTEQDSKDSTYSLSSTLTLSKADYEKHKVYACEVTHQGLSSPVTKSFNRGEC	10.3	0.41	1.2	0.11	–	–	EC50 (read off the curve) [6]: ~0.7 nM; EC50 (read off the curve) [7]: ~0.7 nM; EC50 of IFN-gamma secretion in MLR, donors D2 + D6 [8]: 4.3 nM
2+2 PD1TIM3_0359 (chimeric PD1-0103 / Tim3-0018) (bispecific antibody, human IgG1, kappa, L234A L235A, 2+2 CrossMAb: TIM3 IgG with a crossed PD1 Fab fused by (G4S)4 to the C-terminus of each heavy chain; also called PD1TIM3-0359 (2 + 2)) heavy: not shown light 1: QIVLTQSPAIMSASPGQKVTITCSASSSVNYTQWYQQKLGSSPKLWIYDAFKLAPGVPARFSGSGTGTSYSLTISSMEAEDAASYFCHQWSSYPWTFGGGTKLEIKRTVAAPSVFIFPPSDRKLKSGTASVVCLLNNFYPREAKVQWKVDNALQSGNSQESVTEQDSKDSTYSLSSTLTLSKADYEKHKVYACEVTHQGLSSPVTKSFNRGEC light 2: EVILVESGGGLVKPGGSLKLSCAASGFSFSSYTMSWVRQTPEKRLDWVATISGGGRDIYYPDSVKGRFTISRDNAKNTLYLEMSSLMSEDTALYYCVLLTGRVYFALDSWGQGTSVTVSSASVAAPSVFIFPPSDEQLKSGTASVVCLLNNFYPREAKVQWKVDNALQSGNSQESVTEQDSKDSTYSLSSTLTLSKADYEKHKVYACEVTHQGLSSPVTKSFNRGEC	2.3	0.11	1.8	0.09	binds	binds	–
1+1 PD1TIM3_0389 (based on chimeric PD1-0103 / Tim3-0028) (bispecific antibody, human IgG1, kappa, L234A L235A, 1+1 CrossMAb Vh-VL: HC1/LC1 form the crossed PD1 arm, HC2/LC2 the TIM3 arm; knobs into holes; also called PD1TIM3-0389 (0357); Bispec AB 0389 (1+1)) heavy 1: not shown heavy 2: EVQLQQSVAELVRPGASVKLSCTASGFNIKTTYMHWVKQRPEQGLEWIGRIDPADDNTKYAPKFQGKATITADTSSNTAYLQLSSLTSEDAAIYYCVRDFGYVAWFAYWGQGTLVTFSAASTKGPSVFPLAPSSKSTSGGTAALGCLVEDYFPEPVTVSWNSGALTSGVHTFPAVLQSSGLYSLSSVVTVPSSSLGTQTYICNVNHKPSNTKVDEKVEPKSCDKTHTCPPCPAPEAAGGPSVFLFPPKPKDTLMISRTPEVTCVVVDVSHEDPEVKFNWYVDGVEVHNAKTKPREEQYNSTYRVVSVLTVLHQDWLNGKEYKCKVSNKALGAPIEKTISKAKGQPREPQVCTLPPSRDELTKNQVSLSCAVKGFYPSDIAVEWESNGQPENNYKTTPPVLDSDGSFFLVSKLTVDKSRWQQGNVFSCSVMHEALHNRFTQKSLSLSPGK light 1: EVILVESGGGLVKPGGSLKLSCAASGFSFSSYTMSWVRQTPEKRLDWVATISGGGRDIYYPDSVKGRFTISRDNAKNTLYLEMSSLMSEDTALYYCVLLTGRVYFALDSWGQGTSVTVSSASVAAPSVFIFPPSDEQLKSGTASVVCLLNNFYPREAKVQWKVDNALQSGNSQESVTEQDSKDSTYSLSSTLTLSKADYEKHKVYACEVTHQGLSSPVTKSFNRGEC light 2: NIVMTPTPKFLPVSSGDRVTMTCRASQSVDNYVAWYQQKPGQSPKLLIYYASNRYIGVPDRFTGSGSGTDFTFTISSVQVEDLAVYFCQQHYSSPYTFGSGTKLEIKRTVAAPSVFIFPPSDRKLKSGTASVVCLLNNFYPREAKVQWKVDNALQSGNSQESVTEQDSKDSTYSLSSTLTLSKADYEKHKVYACEVTHQGLSSPVTKSFNRGEC	245	–	1.3	0.13	binds	binds	EC50 of IFN-gamma secretion in MLR, donors D2 + D6 [11]: 2.8 nM; EC50 of IFN-gamma secretion in MLR, donors D1 + D3 [12]: 2 nM; EC50 of IFN-gamma secretion in MLR, donors D2 + D4 [12]: 1.9 nM
